B1: g12 2'-F (ssRNA)
RNA: GGGACGCUCACGUACGCUAACGCGGCCAUCCGGCGUUUGGAACGGGAUGUACACCUGACAUCAGUGCCUGGACGUGCAGU
modifications: 2'-F on all C and U
B2: g6 2'-F (ssRNA)
RNA: GGGACGCUCACGUACGCUAAUCCAGGUGUGGCGAGCCACUGUAAGAGUCGCCGUGAGGAUUCAGUGCCUGGACGUGCAGU
modifications: 2'-F on all C and U
B3: g19 2'-F (ssRNA)
RNA: GGGACGCUCACGUACGCUAAGUAGCCGUGAUUGGGUUGGCUGCCCACAAUUAUCCAGGACUCAGUGCCUGGACGUGCAGU
modifications: 2'-F on all C and U
B4: g2 2'-F (ssRNA)
RNA: GGGACGCUCACGUACGCUAAACCCUGGCGAUCUCCGGCCGGAUACGGGAGAACGAGGUACUCAGUGCCUGGACGUGCAGU
modifications: 2'-F on all C and U
B5: g8 2'-F (ssRNA)
RNA: GGGACGCUCACGUACGCUAAGGGCACUUAAAACCAGACCGUGAUUUGCGGUUGGUCUCGCUCAGUGCCUGGACGUGCAGU
modifications: 2'-F on all C and U
B6: g7 2'-F (ssRNA)
RNA: GGGACGCUCACGUACGCUAACUUGAAGUCAAGGGUAGAGUGACCAUGCAGCUCGUAGACAUCAGUGCCUGGACGUGCAGU
modifications: 2'-F on all C and U
B7: g33 2'-F (ssRNA)
RNA: GGGACGCUCACGUACGCUAAACUUUUGGCGAUCUCCGGCCGGAUACGGGAGAACGAGGUAUCAGUGCCUGGACGUGCAGU
modifications: 2'-F on all C and U
B8: g32 2'-F (ssRNA)
RNA: GGGACGCUCACGUACGCUAAACAAGACCGGGAUGGGGGUUGGUCACACACAAAGACUGAAUCAGUGCCUGGACGUGCAGU
modifications: 2'-F on all C and U
B9: g20 2'-F (ssRNA)
RNA: GGGACGCUCACGUACGCUAAACGUUGUGGCGAACUUCGGCCCGAACGGGAGUAACUGCAUCAGUGCCUGGACGUGCAGU
modifications: 2'-F on all C and U
B10: g37 2'-F (ssRNA)
RNA: GGGACGCUCACGUACGCUAAGGUUUGCUCCGACCGACUAAAGGGAGCCUCUGUCACGAGUUCAGUGCCUGGACGUGCAGU
modifications: 2'-F on all C and U
B11: g36 2'-F (ssRNA)
RNA: GGGACGCUCACGUACGCUAACUUGAUUGGUCGCAACCGGACAAGGACGGGUUGAUGCAGUUCAGUGCCUGGACGUGCAGU
modifications: 2'-F on all C and U
B12: g31 2'-F (ssRNA)
RNA: GGGACGCUCACGUACGCUAAAGAGUCUAUGCCGUGAGUGAGGGUGGCGCCUCGACUGCCAUCAGUGCCUGGACGUGCAGU
modifications: 2'-F on all C and U
B13: g13 2'-F (ssRNA)
RNA: GGGACGCUCACGUACGCUAAUCACUCGGACAGCCGGAGCGAAACGGGCUGUGUAAGACUGUCAGUGCCUGGACGUGCAGU
modifications: 2'-F on all C and U
B14: g1 2'-F (ssRNA)
RNA: GGGACGCUCACGUACGCUAAACACACUGAGAGUUUGACCAGCUAUUAAAUGGGUCGUGACUCAGUGCCUGGACGUGCAGU
modifications: 2'-F on all C and U
B15: g26 2'-F (ssRNA)
RNA: GGGACGCUCACGUACGCUAAGCUCCACCAGGUGUAGCUAGCCUGUAGACAUCAGUAGCAUCAGUGCCUGGACGUGCAGU
modifications: 2'-F on all C and U
B16: g24 2'-F (ssRNA)
RNA: GGGACGCUCACGUACGCUAAGAGUUGUCGCACAGCGACUCGAAAAUAAUCUGUCCGACACUCAGUGCCUGGACGUGCAGU
modifications: 2'-F on all C and U
B17: g15 2'-F (ssRNA)
RNA: GGGACGCUCACGUACGCUAAGACGCGGGCCACCGGCUAGCGACGGGUGGUAAAGGGCUUGUCAGUGCCUGGACGUGCAGU
modifications: 2'-F on all C and U
B18: g35 2'-F (ssRNA)
RNA: GGGACGCUCACGUACGCUAAGAUUUGUGUGAUACCCGACACUCUAACGGGGUAGCAGGGCUCAGUGCCUGGACGUGCAGU
modifications: 2'-F on all C and U
B19: g22 2'-F (ssRNA)
RNA: GGGACGCUCACGUACGCUAAGCGUGUUUCUUCAUUUCGACGCUGGCCAACGGAAAUGCAAUCAGUGCCUGGACGUGCAGU
modifications: 2'-F on all C and U
B20: g16 2'-F (ssRNA)
RNA: GGGACGCUCACGUACGCUAACCGCUACCGGGUGCAACGGGUAGACUGUAACCAGGUGAUAUCAGUGCCUGGACGUGCAGU
modifications: 2'-F on all C and U
B21: g28 2'-F (ssRNA)
RNA: GGGACGCUCACGUACGCUAACCUGGGGGUUCCGCAGGAAUCGGGAACUAGAUUGGUGGUCUCAGUGCCUGGACGUGCAGU
modifications: 2'-F on all C and U
B22: g18 2'-F (ssRNA)
RNA: GGGACGCUCACGUACGCUAAGGCACCCUAUAGGAUUCAGCCCCUAACCCGGUGUUGUGAAUCAGUGCCUGGACGUGCAGU
modifications: 2'-F on all C and U
B23: g34 2'-F (ssRNA)
RNA: GGGACGCUCACGUACGCUAAUUUGGUGAAUUCCGACCAUUUUGCAAACGGGAUACGGGACUCAGUGCCUGGACGUGCAGU
modifications: 2'-F on all C and U
B24: g23 2'-F (ssRNA)
RNA: GGGACGCUCACGUACGCUAAAUGGGAGUGCGCCUCGGCUCUAACGGAGGUAUGCACGUCAUCAGUGCCUGGACGUGCAGU
modifications: 2'-F on all C and U
B25: g10 2'-F (ssRNA)
RNA: GGGACGCUCACGUACGCUAAACACAGCUCUGAUGGUCGUGAUUAGGUUGACCACCUACCUUCAGUGCCUGGACGUGCAGU
modifications: 2'-F on all C and U
B26: g30 2'-F (ssRNA)
RNA: GGGACGCUCACGUACGCUAAAAAUUGCCGGGAUCUGGUGUGGCGACCAUGCGGCGUGCAUUCAGUGCCUGGACGUGCAGU
modifications: 2'-F on all C and U
B27: g14 2'-F (ssRNA)
RNA: GGGACGCUCACGUACGCUAAUCAUCGGGACAUCGGAUGGAACGGGUGUCAAGAAGCGUGUUCAGUGCCUGGACGUGCAGU
modifications: 2'-F on all C and U
B28: g3 2'-F (ssRNA)
RNA: GGGACGCUCACGUACGCUAAGGGCGAAACUGUCGUGACACGGUUUGACAUGCCGGCCUUAUCAGUGCCUGGACGUGCAGU
modifications: 2'-F on all C and U
B29: g9 2'-F (ssRNA)
RNA: GGGACGCUCACGUACGCUAAGAUGUCUCAAUUGGUCGUGAUUGUGCUGACCACACGAACCUCAGUGCCUGGACGUGCAGU
modifications: 2'-F on all C and U
B30: g17 2'-F (ssRNA)
RNA: GGGACGCUCACGUACGCUAAAGUGAUGGCCGGCUGGAGAAACGGGCCACUCGAUCCAGGUCAGUGCCUGGACGUGCAGU
modifications: 2'-F on all C and U
B31: g4 2'-F (ssRNA)
RNA: GGGACGCUCACGUACGCUAAUACCGUGAUUCGGGGUGGUAUCCGGUGGACAUCCAGGUCGUCAGUGCCUGGACGUGCAGU
modifications: 2'-F on all C and U
B32: g27 2'-F (ssRNA)
RNA: GGGACGCUCACGUACGCUAACCUAUGCAGACCGACAUCCGGGUAUACGGGAUGAUGCGACUCAGUGCCUGGACGUGCAGU
modifications: 2'-F on all C and U
B33: g21 2'-F (ssRNA)
RNA: GGGACGCUCACGUACGCUAACCUUGGUGUCAUCCGACCAAAUUAGAACGGGAUGAGGAAGUCAGUGCCUGGACGUGCAGU
modifications: 2'-F on all C and U
B34: g11 2'-F (ssRNA)
RNA: GGGACGCUCACGUACGCUAAGUUUAGGUGGCAUCGACCUUCAUGAAACGGGUGCACAGGCUCAGUGCCUGGACGUGCAGU
modifications: 2'-F on all C and U
B35: g5 2'-F (ssRNA)
RNA: GGGACGCUCACGUACGCUAAGCCCAACGAACAUUUUGAGUUUCCAGGCAGCUCAUAGACAUCAGUGCCUGGACGUGCAGU
modifications: 2'-F on all C and U

molecular target: rec-cMet (Recombinant Human HGF R/c-MET/Fc Chimera) (Homo sapiens, UniProt P08581;P08581 SEQ:1-283,SEQ:1-625); test: SPR; rec-cMet 60 nM; details: tags: C-terminal HIEGRMD linker, human IgG Fc (100-330), 6xHis; R&D Systems; chain copies: 2 (inferred, Fc chimera)
Description: Using these truncated RNA aptamers, the binding ability thereof to the rec-cMet was examined. The binding ability was analyzed using BIACORE (registered trademark) X (GE Healthcare) in accordance with its instructions for use, with the concentration of the rec-cMet being set to 175 nmol/L. Also, the binding ability of each of the RNA aptamers g1 and g1-trA was examined in the same manner. As a comparative example, the 40N was used, and the binding ability thereof was examined in the same manner.
The binding ability of each of the RNA aptamers to the rec-cMet was examined in the same manner as in Example 5, except that the fluorinated RNA aptamers were used. The concentration of the rec-cMet was set to 60 nmol/L. With the time point at which the introduction of the rec-cMet to the chip was started being 0 seconds, introduction of a buffer was started 60 seconds later. As a comparative example, the same negative control as in Example 6 was used.

rec-cMet (Recombinant Human HGF R/c-MET/Fc Chimera), sequence (P08581 25-307, stated change not applied, chain 1 of 2): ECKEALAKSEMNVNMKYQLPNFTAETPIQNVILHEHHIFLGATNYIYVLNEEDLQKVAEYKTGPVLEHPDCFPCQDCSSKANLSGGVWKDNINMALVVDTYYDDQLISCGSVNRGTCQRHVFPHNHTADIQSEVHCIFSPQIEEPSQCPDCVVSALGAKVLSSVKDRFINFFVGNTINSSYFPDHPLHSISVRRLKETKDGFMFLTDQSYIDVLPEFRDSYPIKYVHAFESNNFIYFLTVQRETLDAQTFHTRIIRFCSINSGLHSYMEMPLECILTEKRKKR
rec-cMet (Recombinant Human HGF R/c-MET/Fc Chimera), sequence (P08581 308-932, stated change not applied, chain 2 of 2): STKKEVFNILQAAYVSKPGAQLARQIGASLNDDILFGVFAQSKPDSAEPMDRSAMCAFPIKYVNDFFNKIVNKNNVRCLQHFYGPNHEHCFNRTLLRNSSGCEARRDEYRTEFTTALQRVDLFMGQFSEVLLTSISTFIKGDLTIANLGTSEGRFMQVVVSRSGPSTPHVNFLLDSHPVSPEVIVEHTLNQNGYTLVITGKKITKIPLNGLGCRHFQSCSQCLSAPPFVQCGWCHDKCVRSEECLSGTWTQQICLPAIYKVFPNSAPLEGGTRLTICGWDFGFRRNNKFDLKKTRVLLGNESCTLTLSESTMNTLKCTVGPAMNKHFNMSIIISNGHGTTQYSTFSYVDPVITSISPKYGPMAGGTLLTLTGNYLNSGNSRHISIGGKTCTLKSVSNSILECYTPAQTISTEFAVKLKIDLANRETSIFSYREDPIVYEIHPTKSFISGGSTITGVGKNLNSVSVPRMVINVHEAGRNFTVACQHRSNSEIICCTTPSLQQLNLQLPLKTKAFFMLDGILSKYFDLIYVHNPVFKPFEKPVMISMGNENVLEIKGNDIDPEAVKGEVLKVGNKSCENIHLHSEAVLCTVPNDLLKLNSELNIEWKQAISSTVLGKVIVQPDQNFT

Binding result, binds:
B1, B2, B3, B4, B5, B6, B7, B8, B9, B10, B11, B12, B13, B14, B15, B16, B17, B18, B19, B20, B21, B22, B23, B24, B25, B26, B27, B28, B29, B30, B31, B32, B33, B34, B35

Source: US20130123350, “NUCLEIC ACID MOLECULE CAPABLE OF BINDING TO c-MET AND USE THEREOF” (KANAGAWA PREFECTURAL HOSPITAL ORGANIZATION, published 2013)
